The values below come from the supplement of paper PMC10567573.

First the molecules themselves.
B1: CCDC6 (parent)
chain: ASVTIQARAEQEEEFISNTLFKKI
B2: ZNF449 (parent)
chain: CTHCSKSFRQRAGLIMHQVTHFRG
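Further: lentivirally expressed fusions sorted by FACS into six bins by GFP to DsRed ratio, PSI derived from sequencing read proportions per bin multiplied by bin number.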

Variants of B1 are the subject of the first series. The series can be described thus: protein stability index of a GFP-peptide fusion (GPS, HEK-293T) (PSI 1-6); higher = more stable. The conditions noted are these: c terminus: a fixed tail appended.
ASVAIQARAEQEEEFISNTLFKKI [T4A]: the protein stability index worked out at 4.46.

For the variant ASVLIQARAEQEEEFISNTLFKKI [T4L], the protein stability index turned out to be 3.21.

For ASVGIQARAEQEEEFISNTLFKKI [T4G], the protein stability index is 3.63.

ASVPIQARAEQEEEFISNTLFKKI [T4P]: the protein stability index came out at 4.32.

Consider ASVNIQARAEQEEEFISNTLFKKI [T4N], for which the protein stability index stood at 3.98.

For ASVCIQARAEQEEEFISNTLFKKI [T4C], the protein stability index worked out at 3.52.

Consider ASVQIQARAEQEEEFISNTLFKKI [T4Q], for which the protein stability index amounted to 3.74.

As for ASVSIQARAEQEEEFISNTLFKKI [T4S], the protein stability index was 3.86.

As for ASVMIQARAEQEEEFISNTLFKKI [T4M], the protein stability index was found to be 3.2.

In the case of ASVIIQARAEQEEEFISNTLFKKI [T4I], the protein stability index worked out at 3.33.

As to ASVEIQARAEQEEEFISNTLFKKI [T4E], the protein stability index amounted to 4.41.

As to ASVVIQARAEQEEEFISNTLFKKI [T4V], the protein stability index was found to be 2.88.

Consider ASVRIQARAEQEEEFISNTLFKKI [T4R], for which the protein stability index worked out at 3.14.

Consider ASVHIQARAEQEEEFISNTLFKKI [T4H], for which the protein stability index stood at 3.61.

For ASVWIQARAEQEEEFISNTLFKKI [T4W], the protein stability index worked out at 2.06.

ASVDIQARAEQEEEFISNTLFKKI [T4D]: the protein stability index came to 4.17.

Take ASVKIQARAEQEEEFISNTLFKKI [T4K]: the protein stability index turned out to be 3.29.

Regarding ASVYIQARAEQEEEFISNTLFKKI [T4Y], the protein stability index was 2.56.

In the case of ASVFIQARAEQEEEFISNTLFKKI [T4F], the protein stability index is 2.44.

On to ASTTIQARAEQEEEFISNTLFKKI [V3T], for which the protein stability index was 4.57.

With ASSTIQARAEQEEEFISNTLFKKI [V3S], the protein stability index was determined as 4.38.

With ASITIQARAEQEEEFISNTLFKKI [V3I], the protein stability index was found to be 3.09.

On to ASQTIQARAEQEEEFISNTLFKKI [V3Q], for which the protein stability index turned out to be 4.42.

Consider ASWTIQARAEQEEEFISNTLFKKI [V3W], for which the protein stability index was found to be 3.32.

On to ASYTIQARAEQEEEFISNTLFKKI [V3Y], for which the protein stability index is 3.42.

Consider ASETIQARAEQEEEFISNTLFKKI [V3E], for which the protein stability index was 4.86.

As to ASCTIQARAEQEEEFISNTLFKKI [V3C], the protein stability index turned out to be 1.9.

On to ASPTIQARAEQEEEFISNTLFKKI [V3P], for which the protein stability index worked out at 4.5.

As to ASDTIQARAEQEEEFISNTLFKKI [V3D], the protein stability index was 4.89.

For ASHTIQARAEQEEEFISNTLFKKI [V3H], the protein stability index worked out at 4.1.

With ASLTIQARAEQEEEFISNTLFKKI [V3L], the protein stability index was 3.84.

Take ASNTIQARAEQEEEFISNTLFKKI [V3N]: the protein stability index was determined as 4.6.

Consider ASRTIQARAEQEEEFISNTLFKKI [V3R], for which the protein stability index was found to be 3.9.

For the variant ASGTIQARAEQEEEFISNTLFKKI [V3G], the protein stability index stood at 4.44.

With ASATIQARAEQEEEFISNTLFKKI [V3A], the protein stability index turned out to be 4.51.

In the case of ASFTIQARAEQEEEFISNTLFKKI [V3F], the protein stability index turned out to be 3.44.

As to ASMTIQARAEQEEEFISNTLFKKI [V3M], the protein stability index came out at 3.5.

In the case of ASKTIQARAEQEEEFISNTLFKKI [V3K], the protein stability index came out at 4.33.

Consider NSVTIQARAEQEEEFISNTLFKKI [A1N], for which the protein stability index worked out at 3.78.

For KSVTIQARAEQEEEFISNTLFKKI [A1K], the protein stability index came out at 3.68.

For PSVTIQARAEQEEEFISNTLFKKI [A1P], the protein stability index stood at 3.59.

FSVTIQARAEQEEEFISNTLFKKI [A1F]: the protein stability index amounted to 2.08.

RSVTIQARAEQEEEFISNTLFKKI [A1R]: the protein stability index was 3.51.

On to SSVTIQARAEQEEEFISNTLFKKI [A1S], for which the protein stability index turned out to be 3.75.

For WSVTIQARAEQEEEFISNTLFKKI [A1W], the protein stability index came to 1.86.

In the case of MSVTIQARAEQEEEFISNTLFKKI [A1M], the protein stability index was 3.1.

As for HSVTIQARAEQEEEFISNTLFKKI [A1H], the protein stability index amounted to 3.85.

On to QSVTIQARAEQEEEFISNTLFKKI [A1Q], for which the protein stability index stood at 4.09.

In the case of LSVTIQARAEQEEEFISNTLFKKI [A1L], the protein stability index is 2.48.

TSVTIQARAEQEEEFISNTLFKKI [A1T]: the protein stability index was found to be 3.85.

For ISVTIQARAEQEEEFISNTLFKKI [A1I], the protein stability index is 1.84.

Turning to CSVTIQARAEQEEEFISNTLFKKI [A1C], the protein stability index amounted to 3.07.

ESVTIQARAEQEEEFISNTLFKKI [A1E]: the protein stability index is 4.39.

GSVTIQARAEQEEEFISNTLFKKI [A1G]: the protein stability index turned out to be 3.98.

With DSVTIQARAEQEEEFISNTLFKKI [A1D], the protein stability index stood at 4.27.

Consider YSVTIQARAEQEEEFISNTLFKKI [A1Y], for which the protein stability index turned out to be 2.27.

Regarding VSVTIQARAEQEEEFISNTLFKKI [A1V], the protein stability index is 2.56.

On to ACVTIQARAEQEEEFISNTLFKKI [S2C], for which the protein stability index is 2.84.

Take AGVTIQARAEQEEEFISNTLFKKI [S2G]: the protein stability index amounted to 3.92.

As for AQVTIQARAEQEEEFISNTLFKKI [S2Q], the protein stability index stood at 3.71.

Take AWVTIQARAEQEEEFISNTLFKKI [S2W]: the protein stability index came to 2.37.

Take AHVTIQARAEQEEEFISNTLFKKI [S2H]: the protein stability index was found to be 3.17.

With AIVTIQARAEQEEEFISNTLFKKI [S2I], the protein stability index amounted to 3.08.

In the case of AVVTIQARAEQEEEFISNTLFKKI [S2V], the protein stability index worked out at 2.73.

Consider AAVTIQARAEQEEEFISNTLFKKI [S2A], for which the protein stability index was found to be 4.01.

For AMVTIQARAEQEEEFISNTLFKKI [S2M], the protein stability index is 2.81.

Take AKVTIQARAEQEEEFISNTLFKKI [S2K]: the protein stability index was found to be 3.38.

Turning to AEVTIQARAEQEEEFISNTLFKKI [S2E], the protein stability index came to 4.11.

Consider ALVTIQARAEQEEEFISNTLFKKI [S2L], for which the protein stability index was determined as 2.32.

With ATVTIQARAEQEEEFISNTLFKKI [S2T], the protein stability index amounted to 3.33.

In the case of APVTIQARAEQEEEFISNTLFKKI [S2P], the protein stability index came to 4.25.

Take ARVTIQARAEQEEEFISNTLFKKI [S2R]: the protein stability index amounted to 3.35.

With AYVTIQARAEQEEEFISNTLFKKI [S2Y], the protein stability index is 2.19.

As for ANVTIQARAEQEEEFISNTLFKKI [S2N], the protein stability index came out at 3.99.

ADVTIQARAEQEEEFISNTLFKKI [S2D]: the protein stability index is 4.58.

Turning to AFVTIQARAEQEEEFISNTLFKKI [S2F], the protein stability index was found to be 2.11.

For the variant ASVTAQARAEQEEEFISNTLFKKI [I5A], the protein stability index stood at 4.34.

For ASVTCQARAEQEEEFISNTLFKKI [I5C], the protein stability index stood at 4.5.

In a further series the parent is B2. Described as above. Particulars: c terminus: a fixed tail appended.
With CTHCSKSFRQRAGLIMHQVTHFRD [G24D], the protein stability index came to 3.59.

For CTHCSKSFRQRAGLIMHQVTHFRF [G24F], the protein stability index was found to be 2.68.

Take CTHCSKSFRQRAGLIMHQVTHFRM [G24M]: the protein stability index stood at 2.81.

As for CTHCSKSFRQRAGLIMHQVTHFRI [G24I], the protein stability index was determined as 2.44.

In the case of CTHCSKSFRQRAGLIMHQVTHFRE [G24E], the protein stability index was found to be 2.88.

Turning to CTHCSKSFRQRAGLIMHQVTHFRT [G24T], the protein stability index was determined as 2.69.

CTHCSKSFRQRAGLIMHQVTHFRP [G24P]: the protein stability index turned out to be 3.29.

Regarding CTHCSKSFRQRAGLIMHQVTHFRN [G24N], the protein stability index was 2.91.

Take CTHCSKSFRQRAGLIMHQVTHFRH [G24H]: the protein stability index came out at 2.17.

For the variant CTHCSKSFRQRAGLIMHQVTHFRV [G24V], the protein stability index was 3.46.

On to CTHCSKSFRQRAGLIMHQVTHFRS [G24S], for which the protein stability index amounted to 2.33.

In the case of CTHCSKSFRQRAGLIMHQVTHFRL [G24L], the protein stability index turned out to be 3.55.

As for CTHCSKSFRQRAGLIMHQVTHFRA [G24A], the protein stability index worked out at 2.82.

With CTHCSKSFRQRAGLIMHQVTHFRR [G24R], the protein stability index was 2.29.

With CTHCSKSFRQRAGLIMHQVTHFRC [G24C], the protein stability index was determined as 2.53.

Turning to CTHCSKSFRQRAGLIMHQVTHFRY [G24Y], the protein stability index is 2.41.
